# Target: the molecule itself
# Experiment: cryo-EM structure
protein,measurement,value
"MBP-tagged human TRPA1 (full-length) (natural protein, UniProt O75762 1-1119, looked up) MKRSLRKMWRPGEKKEPQGVVYEDVPDDTEDFKESLKVVFEGSAYGLQNFNKQKKLKRCDDMDTFFLHYAAAEGQIELMEKITRDSSLEVLHEMDDYGNTPLHCAVEKNQIESVKFLLSRGANPNLRNFNMMAPLHIAVQGMNNEVMKVLLEHRTIDVNLEGENGNTAVIIACTTNNSEALQILLKKGAKPCKSNKWGCFPIHQAAFSGSKECMEIILRFGEEHGYSRQLHINFMNNGKATPLHLAVQNGDLEMIKMCLDNGAQIDPVEKGRCTAIHFAATQGATEIVKLMISSYSGSVDIVNTTDGCHETMLHRASLFDHHELADYLISVGADINKIDSEGRSPLILATASASWNIVNLLLSKGAQVDIKDNFGRNFLHLTVQQPYGLKNLRPEFMQMQQIKELVMDEDNDGCTPLHYACRQGGPGSVNNLLGFNVSIHSKSKDKKSPLHFAASYGRINTCQRLLQDISDTRLLNEGDLHGMTPLHLAAKNGHDKVVQLLLKKGALFLSDHNGWTALHHASMGGYTQTMKVILDTNLKCTDRLDEDGNTALHFAAREGHAKAVALLLSHNADIVLNKQQASFLHLALHNKRKEVVLTIIRSKRWDECLKIFSHNSPGNKCPITEMIEYLPECMKVLLDFCMLHSTEDKSCRDYYIEYNFKYLQCPLEFTKKTPTQDVIYEPLTALNAMVQNNRIELLNHPVCKEYLLMKWLAYGFRAHMMNLGSYCLGLIPMTILVVNIKPGMAFNSTGIINETSDHSEILDTTNSYLIKTCMILVFLSSIFGYCKEAGQIFQQKRNYFMDISNVLEWIIYTTGIIFVLPLFVEIPAHLQWQCGAIAVYFYWMNFLLYLQRFENCGIFIVMLEVILKTLLRSTVVFIFLLLAFGLSFYILLNLQDPFSSPLLSIIQTFSMMLGDINYRESFLEPYLRNELAHPVLSFAQLVSFTIFVPIVLMNLLIGLAVGDIAEVQKHASLKRIAMQVELHTSLEKKLPLWFLRKVDQKSTIVYPNKPRSGGMLFHIFCFLFCTGEIRQEIPNADKSLEMEILKQKYRLKDLTFLLEKQHELIKLIIQKMEIISETEDDDSHCSFQDRFKKEQMEQRNSRWNTVLRAVKAKTHHLEP",stoichiometry N,4

# — paper PMC4409540 (Nature, 2015)
